The series is described as follows: protein stability index of a GFP-peptide fusion (GPS, HEK-293T) (PSI 1-6); higher = more stable.
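Also: lentivirally expressed fusions sorted by FACS into six bins by GFP to DsRed ratio, PSI derived from sequencing read proportions per bin multiplied by bin number.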

Regarding FVRGDHRDNSPFDGPGGNLAHAFQ, the protein stability index (parent: IOH59103_28, c terminus: a fixed tail appended) was 1.98.

As for FTQSGPIVSRATGRCLEVEMSKDA [GALNT9 WT], the protein stability index (parent: IOH59749_32, c terminus: a fixed tail appended) is 2.02. On to FMPAMQFSIPPWRYDAEVVAIAQK [KIAA1161 WT], for which, for the setting “parent: IOH61072_98, c terminus: a fixed tail appended”, the protein stability index is 1.76. For the protein RGRHEQSPTSRPRKVSSLPPRSC, the protein stability index (parent: IOH58746_22, c terminus: native) amounted to 2.58. Regarding VEKVLRRWVDEEWPKRERGDPSRH [EDARADD WT], the protein stability index (parent: IOH59721_31, c terminus: a fixed tail appended) is 2.77. As for KAVEEELDAEDRPAWNSKLQYILA, under “parent: IOH55656_9, c terminus: a fixed tail appended”, the protein stability index stood at 2.81. As for PRGRAHLLPNPYQQDFLGLPEELR, for the setting “parent: IOH58746_12, c terminus: a fixed tail appended”, the protein stability index was determined as 3.93.

For MELLRTITYQPAASTKMCEQALGK, the protein stability index (parent: IOH57150_1, c terminus: a fixed tail appended) turned out to be 2.16. In the case of FCASTRLPPTPLLLFPEEEATNGR, where the note is “parent: IOH56238_25, c terminus: a fixed tail appended”, the protein stability index was 2.88.

MFFKDRFYMRTNPFYPEVELNFIS: the protein stability index (parent: IOH59103_50, c terminus: a fixed tail appended) was found to be 2.27. Regarding EQVFSLGDGVSGGFFGIRDSSFL [ZBED1 WT], the protein stability index (parent: IOH55626_115, c terminus: native) amounted to 3.38. Consider ETIQGFWLLTKIDHWNNEKERILL [TPRG1 WT], for which the protein stability index (parent: IOH59452_16, c terminus: a fixed tail appended) is 2.09. In the case of WIHCFEGVTAIIFCVALSDYDLVL [GNAI1 WT], under “parent: IOH55111_36, c terminus: a fixed tail appended”, the protein stability index turned out to be 2.97. YAELGQCSVFPATDAPEQFISQVT: the protein stability index (parent: IOH57150_92, c terminus: a fixed tail appended) worked out at 2.17.

In the case of LPQETNLTLKVCKPQAPQKLDPTL, the protein stability index (parent: IOH57371_9, c terminus: a fixed tail appended) amounted to 3.74.

Take FVAENSSLHPESGQENDATSPHFS [CD69 WT]: the protein stability index (parent: IOH57037_2, c terminus: a fixed tail appended) was determined as 2.9. As for ITQSWQVSVRVQPRGRAHLLPNPY, the protein stability index (parent: IOH58746_10, c terminus: a fixed tail appended) amounted to 1.87.

In the case of RQHHHQSSFPGSLPQETNLTLKVC, where the note is “parent: IOH57371_7, c terminus: a fixed tail appended”, the protein stability index was 2.86.

Regarding FHGTRQYKFDPKTKRILTLQKANS, the protein stability index (parent: IOH59103_74, c terminus: a fixed tail appended) came to 1.72.

For the protein YQSFVQFLQYYYQSGCLYRLRALG [TMEM120A WT], the protein stability index (parent: IOH55078_39, c terminus: a fixed tail appended) was 2.71.

As for ISKKFGDMSYSIRHSISMPAMRNS [TPD52L1 WT], the protein stability index (parent: IOH59709_21, c terminus: a fixed tail appended) was 2.22.

On to HMFTPKLDKMLDPQVWREAATQVF, for which, under “parent: IOH55656_48, c terminus: a fixed tail appended”, the protein stability index worked out at 1.92.

For AGSRQALSFEVPPCNYDPEKWIQ [MGC16075 WT], the protein stability index (parent: IOH57016_8, c terminus: native) is 1.84. On to YTPDLPRADVDHAIEKAFQLWSNV, for which, where the note is “parent: IOH59103_21, c terminus: a fixed tail appended”, the protein stability index was determined as 1.83. Regarding LNFQIEHHLFPTMPRHNYHKVAPL [FADS1 WT], the protein stability index (parent: IOH55275_64, c terminus: a fixed tail appended) is 2.38.

For EGLLRFSSWPFSIQDVVQPLTLQV, for the setting “parent: IOH56238_29, c terminus: a fixed tail appended”, the protein stability index stood at 2.09. As to CCSSADICPKCWTLMTMAIRIIDR [PRIM1 WT], the protein stability index (parent: IOH60890_21, c terminus: a fixed tail appended) came to 1.95.

The values above are taken from the supplement of paper PMC10567573.
